# Experimental data: patent publication US20260218128A1 (CARSGEN LIFE SCIENCES, published 2026)
# Key:
# [1] = molecular target: T1, human MOG overexpressed on cells (293T-hMOG, K562-hMOG) (human, UniProt Q16653 30-247); experiment: flow cytometry, Fab 5 µg/mL on 293T-hMOG cells, Anti-Fc-FITC secondary, MFI; controls 293T cells and NA (no antibody)
# T1 construct: Cells overexpressing human MOG built by conventional techniques; also called K562-huMOG
# T1 chain: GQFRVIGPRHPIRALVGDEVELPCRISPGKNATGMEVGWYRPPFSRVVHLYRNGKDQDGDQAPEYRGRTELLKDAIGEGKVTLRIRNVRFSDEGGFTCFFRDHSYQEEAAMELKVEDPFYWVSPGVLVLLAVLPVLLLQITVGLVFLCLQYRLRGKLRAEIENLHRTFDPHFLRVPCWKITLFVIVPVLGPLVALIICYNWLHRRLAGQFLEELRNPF
# [2] = molecular target: T2, mouse MOG overexpressed on cells (293T-mMOG, K562-mMOG) (mouse, UniProt Q61885 29-246); experiment: flow cytometry, Fab on 293T-mMOG cells, Anti-Fc-FITC secondary, MFI
# T2 construct: whole, on cells
# T2 sequence (looked up): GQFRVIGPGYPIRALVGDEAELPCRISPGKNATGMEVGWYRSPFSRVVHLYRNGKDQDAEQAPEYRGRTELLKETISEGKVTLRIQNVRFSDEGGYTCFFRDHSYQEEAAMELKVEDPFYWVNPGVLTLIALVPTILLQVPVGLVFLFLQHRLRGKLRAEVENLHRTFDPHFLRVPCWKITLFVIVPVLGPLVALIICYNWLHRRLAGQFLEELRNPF
# recombinant hMOG_his = molecular target: T3, recombinant hMOG_his (human, UniProt Q16653 30-154, limits assumed); experiment: SPR, Biacore T200; MOG_His amine-coupled on CM5, Fab as analyte, 1:1 Langmuir fit
# T3 construct: also called human MOG antigen; not shown: His tag
# T3 sequence: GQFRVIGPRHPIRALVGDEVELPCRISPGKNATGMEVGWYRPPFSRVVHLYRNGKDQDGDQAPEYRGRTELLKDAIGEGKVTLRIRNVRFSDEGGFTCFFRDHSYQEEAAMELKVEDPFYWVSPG
# [3] = molecular target: T2, mouse MOG overexpressed on cells …; experiment: flow cytometry, Fab 5 µg/mL on 293T-mMOG cells, Anti-Fc-FITC secondary, MFI; controls 293T cells and NA (no antibody)
binder,measurement,setting,value
"A3 (Fab form) (Fab, V domains shown, Fully human anti-MOG clone tested in Fab form; also called antibody A3) VH: QVQLVQSGAEVKKPGSSVKVSCKASGGTFSSYAISWVRQAPGQGLEWMGGIIPIFGTANYAQKFQGRVTITADKSTSTAYMELSSLRSEDTAVYYCARGWYFFDAGFDYWGQGTTVTVSS VL: DIQMTQSPSTLSASVGDRVTITCRASQSISSWLAWYQQKPGKAPKLLIYDASSLESGVPSRFSGSGSGTEFTLTISSLQPDDFATYYCQQYDSPLLTFGQGTKVEIKR",binding result,[1],binds
same,binding result,[2],no binding
same,Kd,recombinant hMOG_his,5.92 nM
same,koff,recombinant hMOG_his,0.00139 s⁻¹
same,kon,recombinant hMOG_his,234000 M⁻¹ s⁻¹
"A7 (Fab form) (Fab, V domains shown, Fully human anti-MOG clone tested in Fab form; also called antibody A7) VH: not shown VL: DIQMTQSPSTLSASVGDRVTITCRASQSISSWLAWYQQKPGKAPKLLIYDASSLESGVPSRFSGSGSGTEFTLTISSLQPDDFATYYCQQSDTYPRTFGQGTKVEIKR",binding result,[1],binds
same,Kd,recombinant hMOG_his,25.6 nM
same,koff,recombinant hMOG_his,0.00166 s⁻¹
same,kon,recombinant hMOG_his,65000 M⁻¹ s⁻¹
same,binding result,[3],binds
"A5 (Fab form) (Fab, V domains shown, Fully human anti-MOG clone tested in Fab form; also called antibody A5) VH: QVQLVQSGAEVKKPGSSVKVSCKASGGTFSSYAISWVRQAPGQGLEWMGGIIPIFGTANYAQKFQGRVTITADKSTSTAYMELSSLRSEDTAVYYCARAPYSPTYYPFDYWGQGTTVTVSS VL: DIQMTQSPSTLSASVGDRVTITCRASQSISSWLAWYQQKPGKAPKLLIYDASSLESGVPSRFSGSGSGTEFTLTISSLQPDDFATYYCQQYSMDHLTFGQGTKVEIKR",binding result,[1],binds
same,Kd,recombinant hMOG_his,27.6 nM
same,koff,recombinant hMOG_his,0.00278 s⁻¹
same,kon,recombinant hMOG_his,101000 M⁻¹ s⁻¹
same,binding result,[3],binds
"A4 (Fab form) (Fab, V domains shown, Fully human anti-MOG clone tested in Fab form; also called antibody A4) VH: QVQLVQSGAEVKKPGSSVKVSCKASGGTFSSYAISWVRQAPGQGLEWMGGIIPIFGTANYAQKFQGRVTITADKSTSTAYMELSSLRSEDTAVYYCAREWYWPDNPFDYWGQGTTVTVSS VL: not shown",binding result,[1],binds
same,Kd,recombinant hMOG_his,24 nM
same,koff,recombinant hMOG_his,0.000516 s⁻¹
same,kon,recombinant hMOG_his,21500 M⁻¹ s⁻¹
same,binding result,[3],binds
"A9 (Fab form) (Fab, V domains shown, also called antibody A9) VH: not shown VL: DIQMTQSPSTLSASVGDRVTITCRASQSISSWLAWYQQKPGKAPKLLIYDASSLESGVPSRFSGSGSGTEFTLTISSLQPDDFATYYCQQYDQYWTFGQGTKVEIKR",binding result,[1],binds
same,binding result,[2],no binding
same,Kd,recombinant hMOG_his,2.28 nM
same,koff,recombinant hMOG_his,0.000287 s⁻¹
same,kon,recombinant hMOG_his,125000 M⁻¹ s⁻¹
"A12 (Fab form) (Fab, V domains shown, Fully human anti-MOG clone tested in Fab form; also called antibody A12) VH: not shown VL: DIQMTQSPSTLSASVGDRVTITCRASQSISSWLAWYQQKPGKAPKLLIYDASSLESGVPSRFSGSGSGTEFTLTISSLQPDDFATYYCQQYGIPWTFGQGTKVEIKR",binding result,[1],binds
same,binding result,[2],no binding
same,Kd,recombinant hMOG_his,6.83 nM
same,koff,recombinant hMOG_his,0.00103 s⁻¹
same,kon,recombinant hMOG_his,151000 M⁻¹ s⁻¹
"A11 (Fab form) (Fab, V domains shown, Fully human anti-MOG clone tested in Fab form; also called antibody A11; All [sic]) VH: not shown VL: DIQMTQSPSTLSASVGDRVTITCRASQSISSWLAWYQQKPGKAPKLLIYDASSLESGVPSRFSGSGSGTEFTLTISSLQPDDFATYYCQQVYIYSTFGQGTKVEIKR",binding result,[1],binds
same,binding result,[2],no binding
same,Kd,recombinant hMOG_his,17.6 nM
same,koff,recombinant hMOG_his,0.00432 s⁻¹
same,kon,recombinant hMOG_his,246000 M⁻¹ s⁻¹
"A1 (Fab form) (Fab, V domains shown, Fully human anti-MOG clone tested in Fab form; also called antibody A1) VH: QVQLVQSGAEVKKPGSSVKVSCKASGGTFSSYAISWVRQAPGQGLEWMGGIIPIFGTANYAQKFQGRVTITADKSTSTAYMELSSLRSEDTAVYYCARGYFSEEAMDYWGQGTTVTVSS VL: not shown",binding result,[1],binds
same,binding result,[2],no binding
same,Kd,recombinant hMOG_his,7.26 nM
same,koff,recombinant hMOG_his,0.00193 s⁻¹
same,kon,recombinant hMOG_his,266000 M⁻¹ s⁻¹
